In the supplement of paper PMC5998384:

Legend:
HeLa Kyoto [1] = test: thermal stability score vs G1/S (z-score of summed log2 fold changes over temperatures); higher = more thermally stable than in G1/S
HeLa Kyoto [2] = test: solubility change mitosis vs G1/S (difference of NP-40 vs SDS log2 ratios) (log2 ratio difference); higher = more soluble in mitosis
HeLa Kyoto [3] = test: melting temperature (median over replicates), in situ; higher = more thermally stable
HeLa Kyoto [4] = test: solubility in G1/S (NP-40 vs SDS abundance) (log2 ratio); higher = more soluble; details: cell cycle stage: G1/S
[5] = cell cycle stage: early G1 (4.5 h after nocodazole release)
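For melting temperature (median over replicates), in situ in this document: HeLa Kyoto cells synchronized by double thymidine or nocodazole block, proteins quantified by TMT10plex mass spectrometry, three independent biological replicates.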
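For solubility change mitosis vs G1/S (difference of NP-40 vs SDS log2 ratios) in this document: synchronized HeLa Kyoto cells (double thymidine block for G1/S, nocodazole release for mitosis), protein amounts in NP-40 versus SDS lysates quantified by mass spectrometry, three biological replicates.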
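For solubility in G1/S (NP-40 vs SDS abundance) in this document: HeLa Kyoto cells arrested at G1/S by double thymidine block, proteins quantified by TMT10plex mass spectrometry in mild NP-40 versus SDS extracts, three biological replicates.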
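For thermal stability score vs G1/S (z-score of summed log2 fold changes over temperatures) in this document: synchronized HeLa Kyoto cells, proteins quantified by TMT10plex mass spectrometry, three biological replicates, mitosis taken 0.5 h after nocodazole release, G1/S directly after double thymidine block.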

| Sequence | thermal stability score (HeLa Kyoto [1]; [5]) | thermal stability score (HeLa Kyoto [1]; cell cycle stage: mitosis) | solubility change mitosis (log2) (HeLa Kyoto [2]) | melting temperature (HeLa Kyoto [3]; cell cycle stage: G1/S) | melting temperature (HeLa Kyoto [3]; cell cycle stage: mitosis) | solubility in G1/S (log2) (HeLa Kyoto [4]) |
| --- | --- | --- | --- | --- | --- | --- |
| MALDGIRMPDGCYADGTWELSVHVTDLNRDVTLRVTGEVHIGGVMLKLVEKLDVKKDWSDHALWWEKKRTWLLKTHWTLDKYGIQADAKLQFTPQHKLLRLQLPNMKYVKVKVNFSDRVFKAVSDICKTFNIRHPEELSLLKKPRDPTKKKKKKLDDQSEDEALELEGPLITPGSGSIYSSPGLYSKTMTPTYDAHDGSPLSPTSAWFGDSALSEGNPGILAVSQPITSPEILAKMFKPQALLDKAKINQGWLDSSRSLMEQDVKENEALLLRFKYYSFFDLNPKYDAIRINQLYEQAKWAILLEEIECTEEEMMMFAALQYHINKLSIMTSENHLNNSDKEVDEVDAALSDLEITLEGGKTSTILGDITSIPELADYIKVFKPKKLTLKGYKQYWCTFKDTSISCYKSKEESSGTPAHQMNLRGCEVTPDVNISGQKFNIKLLIPVAEGMNEIWLRCDNEKQYAHWMAACRLASKGKTMADSSYNLEVQNILSFLKMQHLNPDPQLIPEQITTDITPECLVSPRYLKKYKNKQITARILEAHQNVAQMSLIEAKMRFIQAWQSLPEFGITHFIARFQGGKKEELIGIAYNRLIRMDASTGDAIKTWRFSNMKQWNVNWEIKMVTVEFADEVRLSFICTEVDCKVVHEFIGGYIFLSTRAKDQNESLDEEMFYKLTSGWV [FERMT2] | -0.389 | 0.267 | -0.119 | 54.6 °C | 55.2 °C | -0.166 |
| MALHSMRKARERWSFIRALHKGSAAAPALQKDSKKRVFSGIQPTGILHLGNYLGAIESWVRLQDEYDSVLYSIVDLHSITVPQDPAVLRQSILDMTAVLLACGINPEKSILFQQSQVSEHTQLSWILSCMVRLPRLQHLHQWKAKTTKQKHDGTVGLLTYPVLQAADILLYKSTHVPVGEDQVQHMELVQDLAQGFNKKYGEFFPVPESILTSMKKVKSLRDPSAKMSKSDPDKLATVRITDSPEEIVQKFRKAVTDFTSEVTYDPAGRAGVSNIVAVHAAVTGLSVEEVVRRSAGMNTARYKLAVADAVIEKFAPIKREIEKLKLDKDHLEKVLQIGSAKAKELAYTVCQEVKKLVGFL [WARS2] | 0.66 | 0.794 | -0.0372 | 48.7 °C | 49.2 °C | 0.308 |
| MALPHDSNETSYLLPPNNEDWGRQTIPDFVYGQKDLMAEGIQWPRNAPGIPDALPQSPFDAALCSAWKQRVELGLFRYRLRELQTQILPGAVGFVAQLNVERGVQRRPPQTIKSVRQAFDPVQFNFNKIRPGEVLFRLHREPDLPGTLLQEDILVVINVSPLEWGHVLLVPEPARQLPQRLLPGALRAGIEAVLLSLHPGFRVGFNSLGGLASVNHLHLHGYYLAHRLPVEQAPSEPLDPGGHLHLLQDLPAPGFLFYTRGPGPDLESLISRVCRATDYLTDHEIAHNLFVTRGAPPGKTSPSSALTGVRVILWARKSSFGIKDGEAFNVALCELAGHLPVKTSQDFSSLTEAAAVALIQDCRLPPSQAEDVQAALVALMSQEEQ [GDPGP1] | -0.152 | -0.661 | -0.107 | 52.5 °C | 51 °C | 0.217 |
| MALQVELVPTGEIIRVVHPHRPCKLALGSDGVRVTMESALTARDRVGVQDFVLLENFTSEAAFIENLRRRFRENLIYTYIGPVLVSVNPYRDLQIYSRQHMERYRGVSFYEVPPHLFAVADTVYRALRTERRDQAVMISGESGAGKTEATKRLLQFYAETCPAPERGGAVRDRLLQSNPVLEAFGNAKTLRNDNSSRFGKYMDVQFDFKGAPVGGHILSYLLEKSRVVHQNHGERNFHIFYQLLEGGEEETLRRLGLERNPQSYLYLVKGQCAKVSSINDKSDWKVVRKALTVIDFTEDEVEDLLSIVASVLHLGNIHFAANEESNAQVTTENQLKYLTRLLSVEGSTLREALTHRKIIAKGEELLSPLNLEQAAYARDALAKAVYSRTFTWLVGKINRSLASKDVESPSWRSTTVLGLLDIYGFEVFQHNSFEQFCINYCNEKLQQLFIELTLKSEQEEYEAEGIAWEPVQYFNNKIICDLVEEKFKGIISILDEECLRPGEATDLTFLEKLEDTVKHHPHFLTHKLADQRTRKSLGRGEFRLLHYAGEVTYSVTGFLDKNNDLLFRNLKETMCSSKNPIMSQCFDRSELSDKKRPETVATQFKMSLLQLVEILQSKEPAYVRCIKPNDAKQPGRFDEVLIRHQVKYLGLLENLRVRRAGFAYRRKYEAFLQRYKSLCPETWPTWAGRPQDGVAVLVRHLGYKPEEYKMGRTKIFIRFPKTLFATEDALEVRRQSLATKIQAAWRGFHWRQKFLRVKRSAICIQSWWRGTLGRRKAAKRKWAAQTIRRLIRGFVLRHAPRCPENAFFLDHVRTSFLLNLRRQLPQNVLDTSWPTPPPALREASELLRELCIKNMVWKYCRSISPEWKQQLQQKAVASEIFKGKKDNYPQSVPRLFISTRLGTDEISPRVLQALGSEPIQYAVPVVKYDRKGYKPRSRQLLLTPNAVVIVEDAKVKQRIDYANLTGISVSSLSDSLFVLHVQRADNKQKGDVVLQSDHVIETLTKTALSANRVNSININQGSITFAGGPGRDGTIDFTPGSELLITKAKNGHLAVVAPRLNSR [MYO1C] | -1.1 | 3.69 | -0.0879 | 50.1 °C | 50.2 °C | -0.972 |
| MALRACGLIIFRRCLIPKVDNNAIEFLLLQASDGIHHWTPPKGHVEPGEDDLETALRETQEEAGIEAGQLTIIEGFKRELNYVARNKPKTVIYWLAEVKDYDVEIRLSHEHQAYRWLGLEEACQLAQFKEMKAALQEGHQFLCSIEA [NUDT2] | -0.841 | -1.24 | 0.0921 | 51.7 °C | 51.9 °C | -0.102 |
| MALSAQQIPRWFNSVKLRSLINAAQLTKRFTRPARTLLHGFSAQPQISSDNCFLQWGFKTYRTSSLWNSSQSTSSSSQENNSAQSSLLPSMNEQSQKTQNISSFDSELFLEELDELPPLSPMQPISEEEAIQIIADPPLPPASFTLRDYVDHSETLQKLVLLGVDLSKIEKHPEAANLLLRLDFEKDIKQMLLFLKDVGIEDNQLGAFLTKNHAIFSEDLENLKTRVAYLHSKNFSKADVAQMVRKAPFLLNFSVERLDNRLGFFQKELELSVKKTRDLVVRLPRLLTGSLEPVKENMKVYRLELGFKHNEIQHMITRIPKMLTANKMKLTETFDFVHNVMSIPHHIIVKFPQVFNTRLFKVKERHLFLTYLGRAQYDPAKPNYISLDKLVSIPDEIFCEEIAKASVQDFEKFLKTL [MTERF3] | -0.741 | 0.517 | -0.167 | 49.7 °C | 50.3 °C | 0.238 |
| MALWRGSAYAGFLALAVGCVFLLEPELPGSALRSLWSSLCLGPAPAPPGPVSPEGRLAAAWDALIVRPVRRWRRVAVGVNACVDVVLSGVKLLQALGLSPGNGKDHSILHSRNDLEEAFIHFMGKGAAAERFFSDKETFHDIAQVASEFPGAQHYVGGNAALIGQKFAANSDLKVLLCGPVGPKLHELLDDNVFVPPESLQEVDEFHLILEYQAGEEWGQLKAPHANRFIFSHDLSNGAMNMLEVFVSSLEEFQPDLVVLSGLHMMEGQSKELQRKRLLEVVTSISDIPTGIPVHLELASMTNRELMSSIVHQQVFPAVTSLGLNEQELLFLTQSASGPHSSLSSWNGVPDVGMVSDILFWILKEHGRSKSRASDLTRIHFHTLVYHILATVDGHWANQLAAVAAGARVAGTQACATETIDTSRVSLRAPQEFMTSHSEAGSRIVLNPNKPVVEWHREGISFHFTPVLVCKDPIRTVGLGDAISAEGLFYSEVHPHY [ADPGK] | 1.05 | -1.45 | -0.191 | 55.3 °C | 55.4 °C | -0.0136 |
| MALYQRWRCLRLQGLQACRLHTAVVSTPPRWLAERLGLFEELWAAQVKRLASMAQKEPRTIKISLPGGQKIDAVAWNTTPYQLARQISSTLADTAVAAQVNGEPYDLERPLETDSDLRFLTFDSPEGKAVFWHSSTHVLGAAAEQFLGAVLCRGPSTEYGFYHDFFLGKERTIRGSELPVLERICQELTAAARPFRRLEASRDQLRQLFKDNPFKLHLIEEKVTGPTATVYGCGTLVDLCQGPHLRHTGQIGGLKLLSNSSSLWRSSGAPETLQRVSGISFPTTELLRVWEAWREEAELRDHRRIGKEQELFFFHELSPGSCFFLPRGTRVYNALVAFIRAEYAHRGFSEVKTPTLFSTKLWEQSGHWEHYQEDMFAVQPPGSDRPPSSQSDDSTRHITDTLALKPMNCPAHCLMFAHRPRSWRELPLRLADFGALHRAEASGGLGGLTRLRCFQQDDAHIFCTTDQLEAEIQSCLDFLRSVYAVLGFSFRLALSTRPSGFLGDPCLWDQAEQVLKQALKEFGEPWDLNSGDGAFYGPKIDVHLHDALGRPHQCGTIQLDFQLPLRFDLQYKGQAGALERPVLIHRAVLGSVERLLGVLAESCGGKWPLWLSPFQVVVIPVGSEQEEYAKEAQQSLRAAGLVSDLDADSGLTLSRRIRRAQLAHYNFQFVVGQKEQSKRTVNIRTRDNRRLGEWDLPEAVQRLVELQNTRVPNAEEIF [TARS2] | -1.35 | -0.229 | -0.134 | 51.4 °C | 50.8 °C | 0.0817 |
